From publication PMC12770985 come the findings set out here.

The target of test [1] is Gerd_aPriL1, non-catalytic primase subunit PriL (Loki group) of Candidatus Gerdarchaeota archaeon B18_G1 (Candidatus Gerdarchaeota archaeon B18_G1). The test can be described thus: SPR; BIACORE, CM5 chip; Gerd_ePriL or Gerd_aPriL1 immobilised, Gerd_ePriS concentration gradient (methods; the legend of Figure 3 tells the reverse); 20 mM Hepes pH 7.5, 500 mM NaCl, 0.005% Tween 20, 30 uL/min, 25 °C. (SPR reads the build-up and loss of mass on a sensor chip optically.)

The target of test [2] is Gerd_ePriL, non-catalytic primase subunit PriL (Heimdall group) of Candidatus Gerdarchaeota archaeon B18_G1 (Candidatus Gerdarchaeota archaeon B18_G1). The test is described as above.

Broadly, the Kd is the constant that tells how readily two partners part at equilibrium. In the case of “Gerd_ePriS, catalytic primase subunit PriS of Candidatus Gerdarchaeota archaeon B18_G1 (enzyme)”, the values for the Kd in test [1] and in test [2] were 105 nM and 2.67 nM, respectively.
